According to publication PMC6981877, “Conformational Plasticity of the Active Site Entrance in E. coli Aspartate Transcarbamoylase and Its Implication in Feedback Regulation” (International Journal of Molecular Sciences, 2020):

Molecular target: the molecule itself
Test: crystal structure; native wild-type apo holoenzyme extracted from E. coli BL21(DE3); hanging drop, 0.1 M MES pH 6.0, 10% glycerol, 10% PEG 8000; space group R32, one catalytic and one regulatory chain in the asymmetric unit; 2.06 Å

B1: E. coli aspartate transcarbamoylase (ATCase) catalytic chain (enzyme, E. coli (endogenous in BL21(DE3)), UniProt P0A786 1-311, looked up)
chain: MANPLYQKHIISINDLSRDDLNLVLATAAKLKANPQPELLKHKVIASCFFEASTRTRLSFETSMHRLGASVVGFSDSANTSLGKKGETLADTISVISTYVDAIVMRHPQEGAARLATEFSGNVPVLNAGDGSNQHPTQTLLDLFTIQETQGRLDNLHVAMVGDLKYGRTVHSLTQALAKFDGNRFYFIAPDALAMPQYILDMLDEKGIAWSLHSSIEEVMAEVDILYMTRVQKERLDPSEYANVKAQFVLRASDLHNAKANMKVLHPLPRVDEIATDVDKTPHAWYFQQAGNGIFARQALLALVLNRDLVL
notes: Aspartate transcarbamoylase catalytic chain, E. coli, wild type, native form lacking the His tag; Crystallised as part of the native holoenzyme; also called catalytic subunit; source: endogenous, extracted from E. coli BL21(DE3), purified as native holoenzyme (Ni-NTA, HiLoad Superdex 200)
Question: Does B1 bind?
Answer: Result: binds

B2: E. coli aspartate transcarbamoylase (ATCase) regulatory chain (natural protein, E. coli (endogenous in BL21(DE3)), UniProt P0A7F3 1-153, looked up)
chain: MTHDNKLQVEAIKRGTVIDHIPAQIGFKLLSLFKLTETDQRITIGLNLPSGEMGRKDLIKIENTFLSEDQVDQLALYAPQATVNRIDNYEVVGKSRPSLPERIDNVLVCPNSNCISHAEPVSSSFAVRKRANDIALKCKYCEKEFSHNVVLAN
notes: Aspartate transcarbamoylase regulatory chain, E. coli, wild type, native; also called regulatory subunit; source: endogenous, extracted from E. coli BL21(DE3), purified as native holoenzyme (Ni-NTA, HiLoad Superdex 200)
Question: Does B2 bind?
Answer: Result: binds
